Experiment [1] has as its target human CD7, full length, on cells (human) (UniProt P09564). Briefly: flow cytometry, control IgG on Jurkat cells (express CD7), non-blocked.
Experiment [2] has the same target. Briefly: flow cytometry, control IgG staining of Jurkat cells (express CD7), non-blocked.
For experiment [3] the target is unchanged. The experiment is described as follows: flow cytometry, antibody staining of Jurkat cells (express CD7), non-blocked. For orientation: A flow cytometer gives signals particle by particle.
For experiment [4] the target is unchanged. Briefly: flow cytometry, antibody staining of Jurkat cells preincubated with HuK12-Fc (competitor).
For experiment [5] the target is unchanged. Briefly: flow cytometry, control Fc on Jurkat cells (express CD7), non-blocked.

Chain of human CD7, full length, on cells (human) (P09564 26-240 limits assumed): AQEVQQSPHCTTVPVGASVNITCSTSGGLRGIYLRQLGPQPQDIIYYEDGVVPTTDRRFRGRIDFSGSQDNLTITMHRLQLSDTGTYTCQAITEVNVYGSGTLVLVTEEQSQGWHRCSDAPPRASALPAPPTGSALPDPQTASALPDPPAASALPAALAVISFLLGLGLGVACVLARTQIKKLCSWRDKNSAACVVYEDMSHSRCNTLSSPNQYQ

IgG Control (antibody): the % Positive Cells in experiment [1] worked out at 3.6%; in experiment [2] it was 3%. Besides, the figures for the MFI in experiment [1] and in experiment [2] were 17 and 18, respectively.

For the substance “anti-human CD7 monoclonal antibody Clone 4H9 (Pharmingen)”, in experiment [3], the % Positive Cells amounted to 88% and the MFI was 38. In experiment [4], the % Positive Cells was 4% and the MFI was determined as 19.

Control Fc (Fc fusion): in experiment [5], the % Positive Cells came to 3.4% and the MFI is 18.

Turning to “anti-human CD7 monoclonal antibody Clone CLB-3A1 (Research Diagnostics, Inc.)”, in experiment [3], the % Positive Cells turned out to be 80% and the MFI turned out to be 30. In experiment [4], this substance registered a % Positive Cells of 63% and an MFI of 24.

Consider “anti-human CD7 monoclonal antibody Clone 8118.1 (Immunotech)”, for which the % Positive Cells in experiment [3] came out at 78%; in experiment [4], 8%. Further, the MFI was 27 in experiment [3] and 24 in experiment [4].

In experiment [3], “anti-human CD7 monoclonal antibody Clone RFT-2a (Research Diagnostics, Inc.)” yielded a % Positive Cells of 71% and an MFI of 23. In addition, in experiment [4], the % Positive Cells amounted to 9% and the MFI was determined as 18.

On to “anti-human CD7 monoclonal antibody Clone M-T701 (Becton Dickinson)”, for which the % Positive Cells amounted to 78% in experiment [3] and 12% in experiment [4]. Moreover, the MFI in experiment [3] was 27; in experiment [4], 19.

In experiment [3], “anti-human CD7 monoclonal antibody Clone WM31 (Research Diagnostics, Inc.)” displayed a % Positive Cells of 62% and an MFI of 22. Moreover, in experiment [4], the % Positive Cells was found to be 11% and the MFI came to 18.

Source of the values: patent US20020141999A1.
